Results on 2 molecules are retold here after article PMC8390553, “The DNA-binding protein CST associates with the cohesin complex and promotes chromosome cohesion” (The Journal of Biological Chemistry, 2021).

The target of the assay is T1, STN1, endogenous (HeLa) (human (endogenous in HeLa), UniProt Q9H668 1-368).
T1 construct: STN1 (OBFC1), subunit of the CST complex, endogenous; also called OBFC1; source: endogenous, in fixed HeLa 1.2.11 cells
T1 sequence (looked up): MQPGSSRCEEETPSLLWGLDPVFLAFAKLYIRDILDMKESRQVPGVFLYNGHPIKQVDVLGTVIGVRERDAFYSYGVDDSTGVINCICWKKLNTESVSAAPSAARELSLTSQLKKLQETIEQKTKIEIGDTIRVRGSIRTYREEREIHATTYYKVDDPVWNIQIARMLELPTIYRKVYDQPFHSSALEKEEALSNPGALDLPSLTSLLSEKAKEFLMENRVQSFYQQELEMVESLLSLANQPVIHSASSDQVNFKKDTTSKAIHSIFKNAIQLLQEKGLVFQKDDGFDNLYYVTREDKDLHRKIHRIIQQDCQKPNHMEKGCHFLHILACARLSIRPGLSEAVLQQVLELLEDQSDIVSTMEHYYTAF
Kind of assay: proximity ligation; fixed HeLa 1.2.11 cells, Duolink PLA kit, antibodies to the endogenous proteins (mouse α-STN1 with rabbit α-SMC3, α-PolA1 or α-MCM7); untreated cells, and for STN1 with SMC3 also after HU (2 mM, 2 h), APH (1 μM, 2 h) or CPT (1 μM, 1 h). The note with it: partners not purified.

B1: SMC3, endogenous (HeLa) (natural protein, human (endogenous in HeLa), UniProt Q9UQE7 1-1217, looked up)
chain: MYIKQVIIQGFRSYRDQTIVDPFSSKHNVIVGRNGSGKSNFFYAIQFVLSDEFSHLRPEQRLALLHEGTGPRVISAFVEIIFDNSDNRLPIDKEEVSLRRVIGAKKDQYFLDKKMVTKNDVMNLLESAGFSRSNPYYIVKQGKINQMATAPDSQRLKLLREVAGTRVYDERKEESISLMKETEGKREKINELLKYIEERLHTLEEEKEELAQYQKWDKMRRALEYTIYNQELNETRAKLDELSAKRETSGEKSRQLRDAQQDARDKMEDIERQVRELKTKISAMKEEKEQLSAERQEQIKQRTKLELKAKDLQDELAGNSEQRKRLLKERQKLLEKIEEKQKELAETEPKFNSVKEKEERGIARLAQATQERTDLYAKQGRGSQFTSKEERDKWIKKELKSLDQAINDKKRQIAAIHKDLEDTEANKEKNLEQYNKLDQDLNEVKARVEELDRKYYEVKNKKDELQSERNYLWREENAEQQALAAKREDLEKKQQLLRAATGKAILNGIDSINKVLDHFRRKGINQHVQNGYHGIVMNNFECEPAFYTCVEVTAGNRLFYHIVDSDEVSTKILMEFNKMNLPGEVTFLPLNKLDVRDTAYPETNDAIPMISKLRYNPRFDKAFKHVFGKTLICRSMEVSTQLARAFTMDCITLEGDQVSHRGALTGGYYDTRKSRLELQKDVRKAEEELGELEAKLNENLRRNIERINNEIDQLMNQMQQIETQQRKFKASRDSILSEMKMLKEKRQQSEKTFMPKQRSLQSLEASLHAMESTRESLKAELGTDLLSQLSLEDQKRVDALNDEIRQLQQENRQLLNERIKLEGIITRVETYLNENLRKRLDQVEQELNELRETEGGTVLTATTSELEAINKRVKDTMARSEDLDNSIDKTEAGIKELQKSMERWKNMEKEHMDAINHDTKELEKMTNRQGMLLKKKEECMKKIRELGSLPQEAFEKYQTLSLKQLFRKLEQCNTELKKYSHVNKKALDQFVNFSEQKEKLIKRQEELDRGYKSIMELMNVLELRKYEAIQLTFKQVSKNFSEVFQKLVPGGKATLVMKKGDVEGSQSQDEGEGSGESERGSGSQSSVPSVDQFTGVGIRVSFTGKQGEMREMQQLSGGQKSLVALALIFAIQKCDPAPFYLFDEIDQALDAQHRKAVSDMIMELAVHAQFITTTFRPELLESADKFYGVKFRNKVSHIDVITAEMAKDFVEDDTTHG
notes: SMC3, core subunit of the cohesin complex, endogenous; also called cohesin subunit; source: endogenous, in fixed HeLa 1.2.11 cells
Take B1: the “PLA foci per cell (average)” value was about 6 foci per cell and the “fold increase in PLA foci after HU, APH or CPT against untreated cells” value is about 2 fold.

B2: PolA1, subunit of DNA polymerase α-primase, endogenous (HeLa) (natural protein, human (endogenous in HeLa), UniProt P09884 1-1462, looked up)
chain: MAPVHGDDSLSDSGSFVSSRARREKKSKKGRQEALERLKKAKAGEKYKYEVEDFTGVYEEVDEEQYSKLVQARQDDDWIVDDDGIGYVEDGREIFDDDLEDDALDADEKGKDGKARNKDKRNVKKLAVTKPNNIKSMFIACAGKKTADKAVDLSKDGLLGDILQDLNTETPQITPPPVMILKKKRSIGASPNPFSVHTATAVPSGKIASPVSRKEPPLTPVPLKRAEFAGDDVQVESTEEEQESGAMEFEDGDFDEPMEVEEVDLEPMAAKAWDKESEPAEEVKQEADSGKGTVSYLGSFLPDVSCWDIDQEGDSSFSVQEVQVDSSHLPLVKGADEEQVFHFYWLDAYEDQYNQPGVVFLFGKVWIESAETHVSCCVMVKNIERTLYFLPREMKIDLNTGKETGTPISMKDVYEEFDEKIATKYKIMKFKSKPVEKNYAFEIPDVPEKSEYLEVKYSAEMPQLPQDLKGETFSHVFGTNTSSLELFLMNRKIKGPCWLEVKSPQLLNQPVSWCKVEAMALKPDLVNVIKDVSPPPLVVMAFSMKTMQNAKNHQNEIIAMAALVHHSFALDKAAPKPPFQSHFCVVSKPKDCIFPYAFKEVIEKKNVKVEVAATERTLLGFFLAKVHKIDPDIIVGHNIYGFELEVLLQRINVCKAPHWSKIGRLKRSNMPKLGGRSGFGERNATCGRMICDVEISAKELIRCKSYHLSELVQQILKTERVVIPMENIQNMYSESSQLLYLLEHTWKDAKFILQIMCELNVLPLALQITNIAGNIMSRTLMGGRSERNEFLLLHAFYENNYIVPDKQIFRKPQQKLGDEDEEIDGDTNKYKKGRKKAAYAGGLVLDPKVGFYDKFILLLDFNSLYPSIIQEFNICFTTVQRVASEAQKVTEDGEQEQIPELPDPSLEMGILPREIRKLVERRKQVKQLMKQQDLNPDLILQYDIRQKALKLTANSMYGCLGFSYSRFYAKPLAALVTYKGREILMHTKEMVQKMNLEVIYGDTDSIMINTNSTNLEEVFKLGNKVKSEVNKLYKLLEIDIDGVFKSLLLLKKKKYAALVVEPTSDGNYVTKQELKGLDIVRRDWCDLAKDTGNFVIGQILSDQSRDTIVENIQKRLIEIGENVLNGSVPVSQFEINKALTKDPQDYPDKKSLPHVHVALWINSQGGRKVKAGDTVSYVICQDGSNLTASQRAYAPEQLQKQDNLTIDTQYYLAQQIHPVVARICEPIDGIDAVLIATWLGLDPTQFRVHHYHKDEENDALLGGPAQLTDEEKYRDCERFKCPCPTCGTENIYDNVFDGSGTDMEPSLYRCSNIDCKASPLTFTVQLSNKLIMDIRRFIKKYYDGWLICEEPTCRNRTRHLPLQFSRTGPLCPACMKATLQPEYSDKSLYTQLCFYRYIFDAECALEKLTTDHEKDKLKKQFFTPKVLQDYRKLKNTAEQFLSRSGYSEVNLSKLFAGCAVKS
notes: PolA1, subunit of DNA polymerase α-primase, endogenous; the subunit to which the PLA antibody was directed; The results name the partner as the complex DNA polymerase α-primase; the antibody of the PLA was against PolA1; source: endogenous, in fixed HeLa 1.2.11 cells
For B2, the “PLA foci per cell (average)” value amounted to 2.5 foci per cell.
